Reference: patent US20060228350A1 (AstraZeneca / MedImmune, published 2006)
Blank lines part the entries; values can stand above or below the molecule they belong to.

Legend:
[1] = target: Human EphA2-Fc fusion protein (human EphA2 fused with the Fc portion of a human IgG1) (human) (UniProt P29317); assay: single point capture ELISA, 500 ng goat anti-human Fab, biotinylated EphA2-Fc 300 ng/well
[2] = target: Human EphA2-Fc fusion protein (human EphA2 fused with the Fc portion of a human IgG1) (human) (UniProt P29317); assay: single point capture ELISA, 100 ng goat anti-human Fab, biotinylated EphA2-Fc 300 ng/well
[3] = target: Human EphA2-Fc fusion protein (human EphA2 fused with the Fc portion of a human IgG1) (human) (UniProt P29317); assay: single point capture ELISA, 500 ng goat anti-human Fab; same plate as VH-6H11/VL-8G7
[4] = target: Human EphA2-Fc fusion protein (human EphA2 fused with the Fc portion of a human IgG1) (human) (UniProt P29317); assay: single point capture ELISA, 20 ng goat anti-human Fab, biotinylated EphA2-Fc 300 ng/well
[5] = target: Human EphA2-Fc fusion protein (human EphA2 fused with the Fc portion of a human IgG1) (human) (UniProt P29317); assay: single point capture ELISA, 500 ng goat anti-human Fab; same plate as VH-233/VL-8G7
[6] = target: Human EphA2-Fc fusion protein (human EphA2 fused with the Fc portion of a human IgG1) (human) (UniProt P29317); assay: single point capture ELISA, 500 ng goat anti-human Fab, biotinylated EphA2-Fc 300 ng/well; remark: listed apart in the source
[7] = target: Human EphA2-Fc fusion protein (human EphA2 fused with the Fc portion of a human IgG1) (human) (UniProt P29317); assay: single point capture ELISA, 500 ng goat anti-human Fab; same plate as VH-7E8/VL-8G7
[8] = target: Human EphA2-Fc fusion protein (human EphA2 fused with the Fc portion of a human IgG1) (human) (UniProt P29317); assay: single point capture ELISA, 500 ng goat anti-human Fab; same plate as VH-2G6/VL-12C8
[9] = target: Human EphA2-Fc fusion protein (human EphA2 fused with the Fc portion of a human IgG1) (human) (UniProt P29317); assay: single point capture ELISA, 500 ng goat anti-human Fab; same plate as VH-233/VL-12C8
[10] = target: Human EphA2-Fc fusion protein (human EphA2 fused with the Fc portion of a human IgG1) (human) (UniProt P29317); assay: single point capture ELISA, 500 ng goat anti-human Fab, biotinylated EphA2-Fc 300 ng/well; remark: listed apart in the source
[11] = target: Human EphA2-Fc fusion protein (human EphA2 fused with the Fc portion of a human IgG1) (human) (UniProt P29317); assay: single point capture ELISA, 1 µg goat anti-human Fd, biotinylated EphA2-Fc 300-600 ng/well
[12] = target: T1, Human EphA2-Fc fusion protein (human EphA2 fused with the Fc portion of a human IgG1) (human, UniProt P29317 24-534, limits assumed); assay: SPR (BIAcore 3000), EphA2-Fc coupled to CM5 chip, IgG in solution, koff/kon
T1 construct: also called biotinylated human EphA2-Fc; not shown: Fc portion of a human IgG1
Procedure: (§1) IgGs were diluted in 0.01 M HEPES pH 7.4 containing 0.15 M NaCl, 3 mM EDTA and 0.005% P20. All subsequent dilutions were made in the same buffer. All binding experiments were performed at 25° C. with IgG concentrations typically ranging from 100 nM to 0.2 nM at a flow rate of 75 μL/min; data were collected for approximately 25 min and one 1-min pulse of 1 M NaCl, 50 mM NaOH was used to regenerate the surfaces. IgGs were also flowed over an uncoated cell and the sensorgrams from these blank runs subtracted from those obtained with EphA2-Fc-coupled chips. Data were fitted to a 1:1 Langmuir binding model. This algorithm calculates both the kₒₙ and the koff, from which the apparent equilibrium dissociation constant, KD, is deduced as the ratio of the two rate constants (koff/kₒₙ).

[13] = target: T1, Human EphA2-Fc fusion protein (human …); assay: SPR (BIAcore 3000), EphA2-Fc coupled to CM5 chip, IgG in solution, 1:1 Langmuir fit
Procedure: as §1

[14] = target: T1, Human EphA2-Fc fusion protein (human …); assay: BIAcore, human IgG1 format on immobilized EphA2-Fc
[15] = target: T1, Human EphA2-Fc fusion protein (human …); assay: SPR (BIAcore 3000), EphA2-Fc coupled to CM5 chip (~500 RU), IgG in solution, koff/kon
Procedure: (§2) EphA2-Fc was coupled to the dextran matrix of a CM5 sensor chip (Pharmacia Biosensor) using an Amine Coupling Kit as described (B. Johnsson et al., 1991, Anal. Biochem. 198: 268-277) at a surface density of approximately 500 RU. IgGs were diluted in 0.01 M HEPES pH 7.4 containing 0.15 M NaCl, 3 mM EDTA and 0.005% P20. All subsequent dilutions were made in the same buffer. All binding experiments were performed at 25° C. with IgG concentrations typically ranging from 100 nM to 0.2 nM at a flow rate of 75 μL/min; data were collected for approximately 25 min and two 30-sec pulse of 1M NaCl, 50 mM NaOH was used to regenerate the surfaces. IgGs were also flowed over an uncoated cell and the sensorgrams from these blank runs subtracted from those obtained with EphA2-Fc-coupled chips. Data were fitted to a 1:1 Langmuir binding model. This algorithm calculates both the kₒₙ and the koff, from which the apparent equilibrium dissociation constant, KD, is deduced as the ratio of the two rate constants (koff/kₒₙ).

[16] = target: T1, Human EphA2-Fc fusion protein (human …); assay: SPR (BIAcore 3000), EphA2-Fc coupled to CM5 chip (~500 RU), IgG in solution, 1:1 Langmuir fit
Procedure: as §2

[17] = target: Human EphA2-Fc fusion protein (human EphA2 fused with the Fc portion of a human IgG1) (human) (UniProt P29317); assay: single point capture ELISA, periplasmic Fab on 500 ng goat anti-human Fab, biotinylated EphA2-Fc 300 ng/well
[18] = target: Human EphA2-Fc fusion protein (human EphA2 fused with the Fc portion of a human IgG1) (human) (UniProt P29317); assay: single point capture ELISA, periplasmic extracts from 15 ml culture, 500 ng goat anti-human Fab

T1 sequence (P29317 24-534 limits assumed): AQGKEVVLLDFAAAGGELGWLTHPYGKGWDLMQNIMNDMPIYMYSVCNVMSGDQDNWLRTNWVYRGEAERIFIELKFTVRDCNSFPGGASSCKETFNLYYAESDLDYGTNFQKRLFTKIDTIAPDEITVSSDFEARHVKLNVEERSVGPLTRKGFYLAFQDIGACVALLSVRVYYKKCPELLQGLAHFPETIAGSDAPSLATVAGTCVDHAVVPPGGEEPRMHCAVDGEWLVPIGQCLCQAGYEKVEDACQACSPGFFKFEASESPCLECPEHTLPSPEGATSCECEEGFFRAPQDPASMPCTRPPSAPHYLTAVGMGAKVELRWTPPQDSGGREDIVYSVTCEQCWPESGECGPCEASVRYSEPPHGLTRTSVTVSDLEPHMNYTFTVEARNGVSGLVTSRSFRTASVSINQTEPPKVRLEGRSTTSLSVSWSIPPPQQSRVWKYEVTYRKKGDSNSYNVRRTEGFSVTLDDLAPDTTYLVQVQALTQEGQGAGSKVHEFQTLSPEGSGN
Chain of Human EphA2-Fc fusion protein (human EphA2 fused with the Fc portion of a human IgG1) (human) (P29317 24-534 limits assumed): as above

Molecule: irrelevant antibody (MEDI-493)
OD450 (background signal) [1]: 0.07 to 0.1 OD450 | OD450 (background signal) [2]: 0.1 to 0.4 OD450 | OD450 (background signal) [3]: 0.2 OD450 | OD450 (background signal) [4]: 0.1 OD450 | OD450 (background signal) [5]: 0.2 OD450 | OD450 (background signal) [6]: 0.3 OD450 | OD450 (background signal) [7]: 0.2 OD450 | OD450 (background signal) [8]: 0.3 OD450 | OD450 (background signal) [9]: 0.1 OD450 | OD450 (background signal) [10]: 0.06 to 0.2 OD450

B1: VH-6H11/VL-8G7 (humanized) full length human IgG1 (antibody, V domains shown)
VH: EVQLVESGGGLVQPGGSLRLSCAASGFTFSDYSMNWVRQAPGKGLEWVAFIRNKANDYTTEYSASVKGRFTISRDNSKNTLYLQMNSLRAEDTAMYYCARYPRYHAMDSWGQGTLVTVSS
VL: EIVLTQSPATLSVSPGERATLSCRASQSISNNLHWYQQKPGKAPKSLIYYVFQSISGVPSRFSGSGSGTDFTLTINSLEAEDAATYYCQQSNSWPLTFGGGTKVDIK
notes: Human IgG1 / human kappa, expressed in HEK 293 cells
Kd [12]: 1.9 nM | koff [13]: 0.00018 s⁻¹ | kon [13]: 96000 M⁻¹ s⁻¹ | fold avidity decrease against parental mAb B233 [14]: 6 fold

B2: VH-7E8/VL-8G7 (humanized) full length human IgG1 (antibody, V domains shown)
VH: EVQLVESGGGLVKPGGSLRLSCAASGFTFSDYSMNWVRQASGKGLEWVGFIRNKANDYTTEYSASVKGRFTISRDDSKNTLYLQMNSLKTEDTAVYYCTTYPRYHAMDSWGQGTLVTVSS
VL: EIVLTQSPATLSVSPGERATLSCRASQSISNNLHWYQQKPGKAPKSLIYYVFQSISGVPSRFSGSGSGTDFTLTINSLEAEDAATYYCQQSNSWPLTFGGGTKVDIK
notes: as for B1
Kd [12]: 48 nM | koff [13]: 0.00045 s⁻¹ | kon [13]: 9300 M⁻¹ s⁻¹ | fold avidity decrease against parental mAb B233 [14]: 160 fold

B5: VH-233/VL-233 IgG (chimaeric form of mAb B233, full length human IgG1) (antibody, V domains shown)
VH: EVKLVESGGGLVQPGGSLSLSCAASGFTFTDYSMNWVRQPPGKALEWLGFIRNKANDYTTEYSASVKGRFTISRDNSQSILYLQMNALRAEDSATYYCVRYPRYHAMDSWGQGTSVTVSS
VL: DIVLTQSPATLSVTPGDSVNLSCRASQSISNNLHWYQQKSHESPRLLIKYVFQSISGIPSRFSGSGSGTDFTLSINSVETEDFGMYFCQQSNSWPLTFGAGTKLELK
notes: Human IgG1 / human kappa constant regions, expressed in HEK 293 cells; also called VH-B233/VL-B233 (chimeric); chimaeric B233
Kd [12]: 0.3 nM | koff [13]: 8e-05 s⁻¹ | kon [13]: 240000 M⁻¹ s⁻¹

B6: VH-4H5/VL-4H5 full length human IgG1 (antibody, V domains shown)
VH: QVQLLESGGGLVQPGGSLRLSCAASGFTFSSYTMSWVRQAPGQALEWMGTISSGGTYTYYPDSVKGRFTISRDNAKNSLYLQMNSLRAEDTAVYYCAREAIFTYWGRGTLVTVSS
VL: DIQLTQSPSSLSASVGDRVTITCKASQDINNYLSWYQQKPGQAPRLLIYRANRLVDGVPDRFSGSGYGTDFTLTINNIESEDAAYYFCLKYDVFPYTFGQGTKVEIK
notes: as for B1
Kd [15]: 0.067 nM | koff [16]: 6.6e-05 s⁻¹ | kon [16]: 980000 M⁻¹ s⁻¹ | fold avidity increase against parental mAb EA2 [14]: 90 fold

B7: VH-4H5/VL-“corrected” 4H5 full length human IgG1 (antibody, V domains shown)
VH: QVQLLESGGGLVQPGGSLRLSCAASGFTFSSYTMSWVRQAPGQALEWMGTISSGGTYTYYPDSVKGRFTISRDNAKNSLYLQMNSLRAEDTAVYYCAREAIFTYWGRGTLVTVSS
VL: DIQLTQSPSSLSASVGDRVTITCKASQDINNYLSWYQQKPGQAPRLLIYRANRLVDGVPDRFSGSGYGTDFTLTINNIESEDAAYYFCLKYDEFPYTFGQGTKVEIK
notes: Human IgG1 / human kappa, expressed in HEK 293 cells; also called 4H5 corrected
Kd [15]: 1.4 nM | koff [16]: 0.00105 s⁻¹ | kon [16]: 750000 M⁻¹ s⁻¹ | fold avidity increase against parental mAb EA2 [14]: 4 fold

B8: VH-2G6/VL-12C8 Fab (framework-shuffled, fully humanized clone from library B) (Fab, from another filing, V domains shown)
VH: EVQLVESGGGVVRPGGSLRLSCAASGFTVSDYSMNWVRQAPGKGLEWIGFIRNKANDYTTEYSASVKGRFTISRDDSKNTLYLQMNSLKTEDTAVYYCTTYPRYHAMDSWGQGTMVTVSS
VL: AIQLTQSPSSLSASVGDRVTITCRASQSISNNLHWYLQKPGQSPQLLIYYVFQSISGVPSRFSGSGSGTDFTLTISSLQPEDFATYYCQQSNSWPLTFGGGTKLEIK
OD450 [17]: 2.8 OD450 | [specific OD450/background OD450] ratio [18]: 40

B9: VH-2G6/VL-12C8 (humanized) full length human IgG1 (antibody, V domains shown)
VH: EVQLVESGGGVVRPGGSLRLSCAASGFTVSDYSMNWVRQAPGKGLEWIGFIRNKANDYTTEYSASVKGRFTISRDDSKNTLYLQMNSLKTEDTAVYYCTTYPRYHAMDSWGQGTMVTVSS
VL: AIQLTQSPSSLSASVGDRVTITCRASQSISNNLHWYLQKPGQSPQLLIYYVFQSISGVPSRFSGSGSGTDFTLTISSLQPEDFATYYCQQSNSWPLTFGGGTKLEIK
notes: as for B1
Kd [12]: 3 nM | koff [13]: 0.00019 s⁻¹ | kon [13]: 64000 M⁻¹ s⁻¹ | fold avidity decrease against parental mAb B233 [14]: 10 fold

Further lines, results first:

OD450 (background signal) [11]: 0.3 OD450
Molecule: irrelevant antibody (background control of Example 2)

Kd [15]: 5.94 nM | koff [16]: 0.00307 s⁻¹ | kon [16]: 517000 M⁻¹ s⁻¹
B3: mAb EA2 (mouse anti-human EphA2 monoclonal antibody) (antibody, V domains shown)
VH: DVKLVESGGGLVKPGGSLKLSCAASGFTFSSYTMSWVRQTPEKRLEWVATISSGGTYTYYPDSVKGRFTISRDNAKNTLYLQMSSLKSEDTAMYYCTREAIFTYWGQGTLVTVSA
VL: DIKMTQSPSSMYASLGERVTITCKASQDINNYLSWFQQKPGKSPKTLIYRANRLVDGVPSRFSGSGSGQDYSLTISSLEYEDMGIYYCLKYDEFPYTFGGGTKLEIK
notes: Murine hybridoma antibody; also called EA2 (murine); parental mAb EA2

Kd [12]: 0.4 nM | koff [13]: 0.00011 s⁻¹ | kon [13]: 280000 M⁻¹ s⁻¹
B4: mAb B233 (mouse anti-human EphA2 monoclonal antibody) (antibody, V domains shown)
VH: EVKLVESGGGLVQPGGSLSLSCAASGFTFTDYSMNWVRQPPGKALEWLGFIRNKANDYTTEYSASVKGRFTISRDNSQSILYLQMNALRAEDSATYYCVRYPRYHAMDSWGQGTSVTVSS
VL: DIVLTQSPATLSVTPGDSVNLSCRASQSISNNLHWYQQKSHESPRLLIKYVFQSISGIPSRFSGSGSGTDFTLSINSVETEDFGMYFCQQSNSWPLTFGAGTKLELK
notes: Murine hybridoma antibody; also called B233 (murine); parental mAb B233
